In IntAct's records for PubMed 24510189:

B1: mRNA-decapping enzyme 1A (Homo sapiens), Q9NPI6 (parent)
chain: MEALSRAGQEMSLAALKQHDPYITSIADLTGQVALYTFCPKANQWEKTDIEGTLFVYRRSASPYHGFTIVNRLNMHNLVEPVNKDLEFQLHEPFLLYRNASLSIYSIWFYDKNDCHRIAKLMADVVEEETRRSQQAARDKQSPSQANGCSDHRPIDILEMLSRAKDEYERNQMGDSNISSPGLQPSTQLSNLGSTETLEEMPSGSQDKSAPSGHKHLTVEELFGTSLPKEQPAVVGLDSEEMERLPGDASQKEPNSFLPFPFEQLGGAPQSETLGVPSAAHHSVQPEITTPVLITPASITQSNEKHAPTYTIPLSPVLSPTLPAEAPTAQVPPSLPRNSTMMQAVKTTPRQRSPLLNQPVPELSHASLIANQSPFRAPLNVTNTAGTSLPSVDLLQKLRLTPQHDQIQTQPLGKGAMVASFSPAAGQLATPESFIEPPSKTAAARVAASASLSNMVLAPLQSMQQNQDPEVFVQPKVLSSAIPVAGAPLVTATTTAVSSVLLAPSVFQQTVTRSSDLERKASSPSPLTIGTPESQRKPSIILSKSQLQDTLIHLIKNDSSFLSTLHEVYLQVLTKNKDNHNL
partner: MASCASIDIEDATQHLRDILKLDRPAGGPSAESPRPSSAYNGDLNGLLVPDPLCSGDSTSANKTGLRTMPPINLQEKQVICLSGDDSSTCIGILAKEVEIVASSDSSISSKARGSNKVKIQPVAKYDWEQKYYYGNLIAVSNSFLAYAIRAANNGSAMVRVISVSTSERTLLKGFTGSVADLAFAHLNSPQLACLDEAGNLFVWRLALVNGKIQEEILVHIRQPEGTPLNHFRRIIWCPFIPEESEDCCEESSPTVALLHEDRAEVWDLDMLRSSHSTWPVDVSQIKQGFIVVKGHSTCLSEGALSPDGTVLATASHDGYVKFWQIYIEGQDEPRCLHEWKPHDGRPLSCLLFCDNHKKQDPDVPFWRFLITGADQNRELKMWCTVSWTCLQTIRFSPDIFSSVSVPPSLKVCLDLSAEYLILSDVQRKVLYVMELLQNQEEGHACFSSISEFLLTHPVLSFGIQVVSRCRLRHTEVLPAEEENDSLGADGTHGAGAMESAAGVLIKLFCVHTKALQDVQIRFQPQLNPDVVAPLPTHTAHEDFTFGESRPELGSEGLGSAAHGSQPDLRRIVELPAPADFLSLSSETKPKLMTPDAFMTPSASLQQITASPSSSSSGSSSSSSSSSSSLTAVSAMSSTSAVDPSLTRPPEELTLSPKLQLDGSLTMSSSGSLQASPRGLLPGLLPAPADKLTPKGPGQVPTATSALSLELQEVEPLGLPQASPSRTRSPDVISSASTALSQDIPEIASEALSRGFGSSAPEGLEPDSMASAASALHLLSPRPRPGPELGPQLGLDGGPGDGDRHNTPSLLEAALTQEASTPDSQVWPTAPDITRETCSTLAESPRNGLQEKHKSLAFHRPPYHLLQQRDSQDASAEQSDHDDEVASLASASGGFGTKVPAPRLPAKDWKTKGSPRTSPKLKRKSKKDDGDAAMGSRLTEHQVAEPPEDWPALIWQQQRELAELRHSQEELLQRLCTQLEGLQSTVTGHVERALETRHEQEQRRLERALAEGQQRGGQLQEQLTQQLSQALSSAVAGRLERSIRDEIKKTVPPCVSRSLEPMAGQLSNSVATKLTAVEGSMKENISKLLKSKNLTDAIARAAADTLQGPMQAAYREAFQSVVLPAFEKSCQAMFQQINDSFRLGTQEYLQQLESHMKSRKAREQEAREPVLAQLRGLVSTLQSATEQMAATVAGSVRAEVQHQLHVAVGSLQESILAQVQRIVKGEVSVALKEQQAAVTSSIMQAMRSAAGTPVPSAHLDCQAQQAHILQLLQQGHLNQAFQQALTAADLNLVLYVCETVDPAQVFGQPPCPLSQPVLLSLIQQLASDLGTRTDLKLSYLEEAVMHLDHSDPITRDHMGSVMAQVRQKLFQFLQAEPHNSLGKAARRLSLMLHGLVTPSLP
B2: mRNA-decapping enzyme 1A (Homo sapiens), Q9NPI6 (parent)
chain: B1 chain

Variants of: B1
Details: with edc4_human EDC4, Q6P2E9

| effect of a mutation on the interaction | Variant |
| --- | --- |
| with no effect | R72G;L73S;N74S;M75G |
| with no effect | S12A;H19A |
| with no effect | R72G |
| with no effect | Q18A;H19A |
| disrupting interaction strength | L554S;F561R;L565S |
| with no effect | N74G |
| with no effect | S12A;Q18A;H19A |
| with no effect | H19A |

Variants of: B2
Details: with dcp2_human DCP2, Q8IU60

| effect of a mutation on the interaction | Variant |
| --- | --- |
| with no effect | L4E;A14Q |

Variants of: B2
Details: with pnrc2_human PNRC2, Q9NPJ4
Sequence of pnrc2_human PNRC2, Q9NPJ4 (Q9NPJ4 whole entry): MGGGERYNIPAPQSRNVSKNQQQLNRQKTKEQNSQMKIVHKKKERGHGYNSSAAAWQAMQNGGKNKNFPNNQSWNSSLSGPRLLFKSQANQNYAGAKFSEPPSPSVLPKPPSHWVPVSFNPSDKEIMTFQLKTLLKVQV

| effect of a mutation on the interaction | Variant |
| --- | --- |
| with no effect | S12A;Q18A;H19A |
| with no effect | R72G;L73S;N74S;M75G |
| with no effect | R72G;N74G |

Variants of: B2
Details: with dcp2_human DCP2, Q8IU60
Remark: another data set of the same source

| effect of a mutation on the interaction | Variant |
| --- | --- |
| disrupting interaction strength | S12A;Q18A;H19A |
| disrupting interaction strength | L554S;F561R;L565S |
| with no effect | H19A |
| decreasing interaction strength | Q18A;H19A |
| decreasing interaction strength | S12A;H19A |

Variants of: B2
Details: with dcp2_human DCP2, Q8IU60
Remark: another data set of the same source

| effect of a mutation on the interaction | Variant |
| --- | --- |
| disrupting interaction strength | L554S;F561R;L565S |
| with no effect | R72G;L73S;N74S;M75G |
| with no effect | N74G |
| with no effect | R72G |
